Assay results reported in article PMC7721647, “The Human RNA Helicase DDX21 Presents a Dimerization Interface Necessary for Helicase Activity” (iScience, 2020).

Assays:
Experiment in all cases: fluorescence polarization; 50 mM KCl; FP: 50 mM Tris pH 7.5, 50 mM KCl, 5 mM MgCl2, no ATP; Hill-slope fit; temperature not given in the material
DDX21Core = target: T1, DDX21Core (human, UniProt Q9NR30 186-564); details: protein: recombinant; label: 5'-FAM; G4
T1 sequence: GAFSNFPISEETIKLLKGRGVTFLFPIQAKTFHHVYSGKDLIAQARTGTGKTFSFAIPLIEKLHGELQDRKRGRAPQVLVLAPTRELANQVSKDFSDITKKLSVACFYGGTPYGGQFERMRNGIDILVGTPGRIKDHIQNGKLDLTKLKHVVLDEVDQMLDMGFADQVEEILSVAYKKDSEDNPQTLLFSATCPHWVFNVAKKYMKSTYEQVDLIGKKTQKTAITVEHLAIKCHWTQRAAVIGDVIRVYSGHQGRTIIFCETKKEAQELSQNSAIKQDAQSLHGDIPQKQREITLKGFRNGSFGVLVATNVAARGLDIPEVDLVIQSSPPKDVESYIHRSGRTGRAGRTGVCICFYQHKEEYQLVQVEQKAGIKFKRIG

DDX21ΔN = target: T2, DDX21ΔN (human, UniProt Q9NR30 186-783); details: protein: recombinant; chain copies: 2; label: 5'-FAM; G4
T2 sequence: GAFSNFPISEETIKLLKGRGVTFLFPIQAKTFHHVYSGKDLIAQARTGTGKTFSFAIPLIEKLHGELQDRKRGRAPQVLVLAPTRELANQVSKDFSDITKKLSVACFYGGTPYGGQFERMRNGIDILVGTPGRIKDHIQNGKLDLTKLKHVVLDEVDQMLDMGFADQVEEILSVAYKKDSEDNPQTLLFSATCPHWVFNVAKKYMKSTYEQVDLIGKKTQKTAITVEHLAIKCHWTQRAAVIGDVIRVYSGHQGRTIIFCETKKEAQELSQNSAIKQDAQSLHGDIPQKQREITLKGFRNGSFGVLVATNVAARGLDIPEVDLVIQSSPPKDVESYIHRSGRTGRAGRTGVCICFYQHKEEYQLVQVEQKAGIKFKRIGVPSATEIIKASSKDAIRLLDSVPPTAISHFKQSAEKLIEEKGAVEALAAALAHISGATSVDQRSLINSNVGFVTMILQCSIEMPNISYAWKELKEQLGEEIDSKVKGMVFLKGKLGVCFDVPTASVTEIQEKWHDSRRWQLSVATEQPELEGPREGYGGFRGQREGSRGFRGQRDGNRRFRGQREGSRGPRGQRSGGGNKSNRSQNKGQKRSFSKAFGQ

DDX21Core-DD = target: T3, DDX21Core-DD (human, UniProt Q9NR30 186-620); details: protein: recombinant; tags: C-terminal His6, uncleavable; chain copies: 2; label: 5'-FAM; G4
T3 sequence: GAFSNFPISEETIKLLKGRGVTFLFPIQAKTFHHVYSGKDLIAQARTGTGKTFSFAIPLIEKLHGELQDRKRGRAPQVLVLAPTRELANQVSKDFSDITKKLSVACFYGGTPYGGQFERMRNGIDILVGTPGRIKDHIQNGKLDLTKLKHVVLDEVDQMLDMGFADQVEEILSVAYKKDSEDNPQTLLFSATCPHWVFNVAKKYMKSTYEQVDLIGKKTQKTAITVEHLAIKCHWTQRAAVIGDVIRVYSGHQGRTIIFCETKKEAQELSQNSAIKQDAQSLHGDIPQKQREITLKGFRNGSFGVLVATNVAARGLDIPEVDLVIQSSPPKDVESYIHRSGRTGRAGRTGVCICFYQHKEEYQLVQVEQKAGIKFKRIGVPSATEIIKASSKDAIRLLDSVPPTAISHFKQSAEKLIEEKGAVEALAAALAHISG

DDX21Fl monomer = target: T4, DDX21Fl monomer (human, UniProt Q9NR30 1-783, L611R;A612R;A613R;A614R;L615R;A616R); details: protein: recombinant; label: 5'-FAM; G4
T4 sequence: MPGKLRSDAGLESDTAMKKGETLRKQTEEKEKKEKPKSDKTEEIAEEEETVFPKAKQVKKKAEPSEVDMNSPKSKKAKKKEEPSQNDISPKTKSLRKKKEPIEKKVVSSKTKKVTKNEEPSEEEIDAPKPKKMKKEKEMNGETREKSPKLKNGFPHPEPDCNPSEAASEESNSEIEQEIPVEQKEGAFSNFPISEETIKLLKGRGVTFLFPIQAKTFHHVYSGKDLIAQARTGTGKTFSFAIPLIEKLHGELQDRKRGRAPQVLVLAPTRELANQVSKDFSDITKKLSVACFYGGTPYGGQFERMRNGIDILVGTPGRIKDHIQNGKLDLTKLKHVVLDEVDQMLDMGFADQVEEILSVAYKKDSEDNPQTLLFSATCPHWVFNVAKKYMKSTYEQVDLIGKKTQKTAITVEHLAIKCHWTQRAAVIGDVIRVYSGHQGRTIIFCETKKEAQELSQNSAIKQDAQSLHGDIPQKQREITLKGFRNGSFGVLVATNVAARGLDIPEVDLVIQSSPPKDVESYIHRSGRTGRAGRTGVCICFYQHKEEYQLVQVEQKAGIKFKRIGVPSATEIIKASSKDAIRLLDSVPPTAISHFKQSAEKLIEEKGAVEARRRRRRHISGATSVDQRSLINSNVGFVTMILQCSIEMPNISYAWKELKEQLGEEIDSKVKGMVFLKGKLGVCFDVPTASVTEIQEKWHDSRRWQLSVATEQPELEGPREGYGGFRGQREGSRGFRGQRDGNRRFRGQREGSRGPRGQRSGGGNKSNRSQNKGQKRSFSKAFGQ

Q: What does the source list for GUUGGGGCGGGCGUUGGGUUUGGGGGGACG (structured_RNA) [Q2 RNA G-quadruplex]?
A: Kd (DDX21Core): 62.5 ± 4.9 nM; Kd (DDX21ΔN): 7.6 ± 0.5 nM; Kd (DDX21Core-DD): 23.1 ± 3.2 nM; Kd (DDX21Fl monomer): 9.8 ± 0.9 nM
